Reference: publication PMC5993284, “Peptide inhibitors of the anaphase promoting-complex that cause sensitivity to microtubule poison” (PLoS ONE, 2018)
Entries after “also recorded” stand apart in the source; their conditions may differ. Ends that are not written are not given here. * marks the point of attachment. Biotin = O=C1N[C@H]2[C@H](CS[C@H]2CCCCC(=O)*)N1

B1: biotinylated-PQ65: PQ65 containing an N-terminal biotin (peptide, UniProt P26309 169-232, looked up, fragment)
chain: Biotin-PPNASPISHLRAQTKIVFKQNVAEACGLDMNKRILQYMPEPPKCSSLRQKSYIMKKRTHYSYQQ
B2: Mad3-Bub3 complex + 0.5 μM Mad2: Mad3-Bub3 complex in the presence of 0.5 μM Mad2 (protein)
chain 1: MKAYAKKRISYMPSSPSQNVINFEEIETQKENILPLKEGRSAAALSKAIHQPLVEINQVKSSFEQRLIDELPALSDPITLYLEYIKWLNNAYPQGGNSKQSGMLTLLERCLSHLKDLERYRNDVRFLKIWFWYIELFTRNSFMESRDIFMYMLRNGIGSELASFYEEFTNLLIQKEKFQYAVKILQLGIKNKARPNKVLEDRLNHLLRELGENNIQLGNEISMDSLESTVLGKTRSEFVNRLELANQNGTSSDVNLTKNNVFVDGEESDVELFETPNRGVYRDGWENFDLKAERNKENNLRISLLEANTNLGELKQHEMLSQKKRPYDEKLPIFRDSIGRSDPVYQMINTKDQKPEKIDCNFKLIYCEDEESKGGRLEFSLEEVLAISRNVYKRVRTNRKHPREANLGQEESANQKEAEAQSKRPKISRKALVSKSLTPSNQGRMFSGEEYINCPMTPKGRSTETSDIISAVKPRQLTPILEMRESNSFSQSKNSEIISDDDKSSSSFISYPPQR
chain 2: MQIVQIEQAPKDYISDIKIIPSKSLLLITSWDGSLTVYKFDIQAKNVDLLQSLRYKHPLLCCNFIDNTDLQIYVGTVQGEILKVDLIGSPSFQALTNNEANLGICRICKYGDDKLIAASWDGLIEVIDPRNYGDGVIAVKNLNSNNTKVKNKIFTMDTNSSRLIVGMNNSQVQWFRLPLCEDDNGTIEESGLKYQIRDVALLPKEQEGYACSSIDGRVAVEFFDDQGDDYNSSKRFAFRCHRLNLKDTNLAYPVNSIEFSPRHKFLYTAGSDGIISCWNLQTRKKIKNFAKFNEDSVVKIACSDNILCLATSDDTFKTNAAIDQTIELNASSIYIIFDYEN
chain 3: MSQSISLKGSTRTVTEFFEYSINSILYQRGVYPAEDFVTVKKYDLTLLKTHDDELKDYIRKILLQVHRWLLGGKCNQLVLCIVDKDEGEVVERWSFNVQHISGNSNGQDDVVDLNTTQSQIRALIRQITSSVTFLPELTKEGGYTFTVLAYTDADAKVPLEWADSNSKEIPDGEVVQFKTFSTNDHKVGAQVSYKY
modifications: Mad2 added separately at 0.5 uM

Legend:
[1] = target: T1, APC/C^Cdc20 (Saccharomyces cerevisiae, UniProt P16522+P53886); test: biochemical; format: biochemical; conditions: for inhibition of APC/C^Cdc20 activity (in words): 220 μM peptide, 35S-Pds1 substrate, time course 0-60 minutes, vs buffer only, n = 3
T1 construct: constructed within full-length Cdc20 by site-directed mutagenesis for analysis in vitro in the APC/C^Cdc20 assay; The APC/C was purified for enzyme assays from 1 mL of TAP-tagged Cdc16 yeast extract (SCSY51); made in house; host or cells: Cdc20: in vitro transcription/translation in rabbit reticulocyte lysate, used unpurified; APC/C: S. cerevisiae strain SCSY51 (Cdc16-TAP) extract, captured on IgG magnetic beads
Protocol: Full-length, radio-labeled protein purifications were preformed as previously described. ^35S-Pds1 was prepared in a 500 μL IVT/T (In Vitro Transcription/Translation) reaction (Promega, USA), which contained 400 μL rabbit reticulocyte lysate, 20 μL of L-^35S-methionine (PerkinElmer, USA), 10 μg of plasmid DNA, and the remaining volume as nuclease-free ddH2O as recommended by the manufacturer. The reaction mixture was incubated for 2 hours at room temperature and gently mixed every 30 minutes. The reaction was added to pre-equilibrated IgG Sepharose beads (GE Healthcare, USA) in Bio-spin disposable chromatography columns (Bio-Rad, USA) for binding for 2 hours at room temperature. To ensure efficient binding, the beads were re-suspended several times every 30 minutes. After binding, the beads were washed with 5 mL wash buffer, containing 200 mM 4-(2-hydroxyethyl)-1-piperazineethanesulfonic acid (HEPES) at pH 8.0, 150 mM NaCl, 10% (v/v) glycerol, and 1 mM dithiothreitol (DTT). The ^35S-Pds1 was cleaved from the beads using TEV (Tobacco Etch Virus) protease in 1x TEV buffer (Invitrogen, USA) for 2 hours at room temperature, and the mixture was re-suspended several times every 30 minutes to promote efficient cleavage. The elution was collected and concentrated by employing an Amicon Ultra filter column (Millipore, Ireland). The concentrated ^35S-Pds1 was collected in a new tube, and stored at -20 °C.
The production of Cdc20 or Cdh1 was prepared by IVT/T reactions, where 16 μL of rabbit reticulocyte lysate, 20 μM L-methionine, 0.4 μg of plasmid DNA, and a volume of nuclease-free ddH2O for a total volume of 20 μL. This freshly synthesized Cdc20 or Cdh1 protein was used directly in all APC/C assays after a 1-hour synthesis reaction at room temperature. The APC/C was purified for enzyme assays from 1 mL of TAP-tagged Cdc16 yeast extract (SCSY51) where extract was mixed with 50 μL 50:50 slurry magnetic beads (Invitrogen, Norway) for 2 hours at 4 °C. After incubation, the beads were washed with 3 mL APC/C wash buffer (200 mM of HEPES, 150 mM of NaCl and 10% (v/v) of glycerol). APC/C bound to IgG magnetic beads was used directly in the enzyme assays.
APC/C assays were performed by adding the reaction contents in following order: 4.3 μL of QAH buffer, 20 μL of rabbit reticulocyte lysate containing Cdc20 or Cdh1 with or without an additional volume of recombinant checkpoint protein(s) or inhibitor peptides, 2.4 μL ubiquitin aldehyde (Boston Biochem, USA), APC/C, 16 μL pre-charged E1/E2/ATP/ubiquitin mix, and 13.3 μL of ^35S-Pds1 with QAH buffer (20 mM HEPES at pH 8.0, 100 mM NaCl, and 1 mM MgCl2). The E1/E2/ATP/ubiquitin mix were pre-charged by mixing 1 μL of E1 (Boston Biochem, USA), 1 μL of E2 (Boston Biochem, USA), 14.4 μL of ATP, 14.4 μL of […] (Boston Biochem, USA), and 17.2 μL of QAH buffer and incubated for 15 minutes at room temperature. Approximately 15 μL of samples were taken out at each time point, and the reaction was stopped by the addition of 2x protein sample buffer (125 mM Tris-HCl pH 6.8, 4% SDS, 20% glycerol, and 0.002% bromophenol blue, with 10% (final v/v) 2-mercaptoethanol added in fresh directly before use).
For inhibitor titration and time-course experiments, recombinant Bub3, Mad2, Mad3, and the Mad3-Bub3 complex were expressed and purified as previously described. […] For inhibition of APC/C the co-factor Cdc20 or Cdh1 was made fresh by IVT/T, and pure recombinant checkpoint proteins or inhibitor peptides were added to the IVT/T mixture and incubated for an additional hour at room temperature. In titrations, a dilution series of the checkpoint protein(s) were made before incubation with the Cdc20 co-factor. SDS-PAGE was performed using stand protocols (BioRad, USA).

[2] = tested on: APC/C; test: Biotinylated peptide pull-down of purified APC/C, Western blot; format: binding, Saccharomyces cerevisiae; conditions: 20 μM biotinylated peptide, purified yeast APC/C, 1 h at 4 °C, streptavidin/Avidin beads, n = 3
Protocol: For APC/C purification, the APC/C which contain Cdc16-TAP-tag was isolated from 2 mL arrested yeast lysate by 120 μL IgG sepharose 6 Fast Flow beads (GE Healthcare Life Sciences) and incubate for 2 h at 4 °C on a rotating wheel. Beads were collected washed with 5 mL of APC/C wash buffer (200 mM Hepes pH8.0, 150 mM NaCl, 10% glycerol). Beads were resuspended in 150 μL of APC/C wash buffer contain 17.6 units of AcTEV protease (Invitrogen, Carlsbad, CA) at 4°C for 3 h with pipetting every 20 minutes. The purified APC/C was collected in the flow-through.
For APC/C binding assays, 20 μM biotinylated peptides or 20 μM peptides only as a negative control were incubated with purified APC/C and 100 μL APC/C wash buffer which contains phosphatase inhibitors (200 mM Hepes pH 8.0, 150 mM NaCl, 10% glycerol, 10 mM NaF, 1 mM NaVO4, 5 mM Na-pyrophosphate, 10 mM 2-glycerol phosphate) for 1 h at 4 °C. The mixtures were applied to 120 μL streptavidin beads (Dynabeads MyOne Streptavidin T1, Invitrogen) for 30 min at 4 °C with gentle pipetting every 10 min. Beads were washed with 1 mL of PBST buffer (Phosphate buffer saline and 0.1% Tween 20) three times SDS-PAGE protein sample was added directly. For APC/C binding competition experiments, the biotinylated peptide and 10-fold excess non-biotinylated peptides were added to purified APC/C at same time.
Free D-biotin in 10% DMSO was used for the control binding assays. For pre-coating APC/C with biotin, a modified APC/C purification was performed. 2 mL yeast lysate was incubated with 120 μL IgG Sepharose beads and additional 20.4 μM free biotin or non-biotin solvent as a positive control was added and samples were incubated for 2 h at 4 °C on a rotating wheel. Purified pre-coated APC/C was then removed from the IgG Sepharose following the standard purification procedure. 20 μM biotinylated peptides or 20 μM peptides as a negative control were incubated with pre-coated APC/C and 100 μL APC/C wash buffer which contain phosphatase inhibitors for 1 h at 4 °C. In addition, 20 μM biotinylated peptide was added and incubated with pre-coated APC/C in a non-biotin containing solvent as positive control. Pre-coated APC/C binding procedures were same as above. For pre-coating streptavidin beads with biotin, streptavidin beads were washed in the presence of 10.2 nmol/mL D-biotin in PBST buffer or non-biotin solvent as a positive control before use. Pre-coated streptavidin beads were incubated with purified APC/C-peptide complexes with an extra […] biotin for 30 minutes with gentle pipetting every 10 min at 4 °C.
Proteins were separated in SDS-PAGE gels and then were transferred to PVDF membrane. Blocking was performed by incubating samples in 20 mL PBST with 5% milk at 4 °C. Rabbit anti-tap (Thermo, CAB1001) was used as primary antibodies at a 1:1000 dilution and incubated for 2 hours at RT. Anti-rabbit HRP (Jackson, USA) was then used as secondary antibody at 1:5000 dilution and incubate for 1 hr at RT. Chemiluminescence signals were detected using an ImageQuant LAS 4000 (GE Healthcare Bio-Sciences, USA). For cell cycle timing Western blots anti-MYC and anti-Actin antibodies were employed (ABCAM, UK).

Molecule | inhibition of APC/C^Cdc20 activity (in words) [1] | binding to APC/C (in words) [2] | IC50 ([1]; Mad3-Bub3 complex in the presence of 0.5 μM Mad2, ± sd, three independent titrations, read-out: IC50)
DK27: defined Mad2-binding motif peptide DK27 (Cdc20 197–223) (Biotin-DMNKRILQYMPEPPKCSSLRQKSYIMK) | displayed a diminished ability to inhibit APC/C^Cdc20 although a significant difference with the buffer only control was still observed | retained the ability to bind with the APC/C; also recorded: displayed the ability to bind APC/C similar to the control peptide DQ36 | 
PS46: N-terminal 46 amino acid peptide called PS46 (Cdc20 167–213) (LPPPNASPISHLRAQTKIVFKQNVAEACGLDMNKRILQYMPEPPKCS; UniProt P26309 167-213, looked up, fragment) | observed to inhibit APC/C^Cdc20 | able to bind to the APC/C directly, although consistently weaker binding was observed relative to DQ36; also recorded: consistently observed to have weaker APC/C binding activity relative to wild type DQ36 | 
biotinylated-DQ36: DQ36 containing an N-terminal biotin (Biotin-DMNKRILQYMPEPPKCSSLRQKSYIMKKRTHYSYQQ) |  | able to pull-down purified APC/C | 
SQ19: C-terminal 19 amino acids, SQ19 (Cdc20 213–232) peptide (SSLRQKSYIMKKRTHYSYQQ; UniProt P26309 213-232, looked up, fragment) | displayed a low level of inhibitory activity | displayed the ability to bind APC/C similar to the control peptide DQ36 | 
B1 |  | able to pull-down purified APC/C | 
B2 |  |  | 70 ± 3 nM
